Experimental findings from the supplement of paper PMC10567573 are described below.

± gives the standard deviation.

A short description of the data set: protein stability index of a GFP-peptide fusion (GPS, HEK-293T) (PSI 1-6); higher = more stable.
Setting [1] is: treatment: DMSO, c terminus: a fixed tail appended.
[2] abbreviates: treatment: MLN4924 1 uM, 8 h, c terminus: a fixed tail appended.
Setting [3] is: treatment: DMSO, c terminus: native.
Where [4] appears, read: treatment: MLN4924 1 uM, 8 h, c terminus: native.
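Note: 24-mer peptide tiles fused after GFP, lentivirally expressed, FACS-sorted into six equal bins by GFP/DsRed ratio, decoded by Illumina sequencing, PSI is the read-weighted mean bin number.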

Take QYTVPGTEGVTQLKLTVVEDVTVG [ZFYVE21]: the protein stability index was found to be 3.86 ± 0.19 under setting [1] and 3.98 ± 0.41 under setting [2].

FSLACSLMGPSRMSLFSLYMVQDQ [M1AP] showed a protein stability index under setting [1] of 3.19 ± 0.42 and a protein stability index under setting [2] of 2.99 ± 0.32.

With LGKILSVELGKQKKKYMPYNHQHK [FADS1], the protein stability index worked out at 2.55 ± 0.12 under setting [1] and 2.69 ± 0.23 under setting [2].

For the sequence VKPENFLIGRPGNKTQQVIHIIDF [CSNK1G3], the protein stability index was 2.4 ± 0.72 under setting [1] and 2.5 ± 0.34 under setting [2].

As to KILVGNRLHLAFKRQVPREQAQAY [RAB40A], the protein stability index came to 2.48 ± 0.11 under setting [1] and 2.56 ± 0.19 under setting [2].

In the case of GLLSKTAGFSPDCIMDDAINILQN [INTS4], the protein stability index is, setting by setting: under setting [1], 2.91 ± 0.33; under setting [2], 2.89 ± 0.17.

As for AFAQRPSSAPDLMCLSPDRKMEVE [CDC25B], the protein stability index amounted to 4.97 ± 0.3 under setting [1] and 4.78 ± 0.14 under setting [2].

In the case of QRLIKKVQEAVLDKWVNDPHRMDR [GOLPH3], the protein stability index runs as follows: under setting [1], 2.34 ± 0.19; under setting [2], 2.27 ± 0.2.

On to TKFQELQLAAGRHGDDLKNTKNEI [KRT71], for which the protein stability index by setting is: under setting [1], 4.12 ± 0.39; under setting [2], 4.28 ± 0.13.

As to FVIKMPVMYRIGCLRDDVVFFIYL [CLPTM1], the protein stability index turned out to be 3.05 ± 0.39 under setting [1] and 3.06 ± 0.25 under setting [2].

Take PDEMRMQALLIRERILGPSHPDTS [FEM1A]: the protein stability index under setting [1] came out at 3.29 ± 0.26 and the protein stability index under setting [2] was determined as 3.56 ± 0.19.

On to LLSDVRFVLGKGRGAAAAGGPQRI [BTBD1], for which the protein stability index runs as follows: under setting [1], 2.85 ± 0.63; under setting [2], 3.04 ± 0.27.

Consider QEDAPMIEPLVPEEKMETKTESSG [EPB41L3], for which the protein stability index came out at 5.69 ± 0.17 under setting [1] and 5.63 ± 0.13 under setting [2].

Take LASHHNHFSQIVIFMLCTLVLAIP [OR10K2]: the protein stability index reads like this: under setting [1], 3.06 ± 0.22; under setting [2], 3.13 ± 0.18.

As to PEFELLWKDIIHNPQALSPQFTGI [INTS3], the protein stability index reads like this: under setting [1], 2.16 ± 0.15; under setting [2], 2.21 ± 0.32.

ALGPLRTPAPPLWIGLFLVATGSQ: the protein stability index was determined as 2.64 ± 0.57 under setting [1] and 2.27 ± 0.14 under setting [2].

As for LTYSTRMSQTVQRMLVAASWACAF [OR3A1], the protein stability index worked out at 3.35 ± 0.71 under setting [1] and 3 ± 0.65 under setting [2].

On to ENQRLFEMLGRKCLTLATAVVQLY [WAS], for which the protein stability index was determined as 2.26 ± 0.21 under setting [1] and 2.44 ± 0.33 under setting [2].

Take VQREKDLPNYNWNSFGLRFGKREA [KISS1]: the protein stability index reads like this: under setting [1], 3.28 ± 0.12; under setting [2], 3.19 ± 0.18.

For the sequence TQSDLYKKTQETLSQAGQKTSAAL [TPD52L2], the protein stability index runs as follows: under setting [1], 4.88 ± 0.067; under setting [2], 4.93 ± 0.21.

LQAESPPVDPDSQADTVHSNPELD [DNAAF3]: the protein stability index is 5.7 ± 0.17 under setting [1] and 5.63 ± 0.27 under setting [2].

Sequence GLDVLLAQEVRPRRWKLQVLDLRK [PRAME] had a protein stability index under setting [1] of 2.31 ± 0.46 and a protein stability index under setting [2] of 2.33 ± 0.48.

YGDWTSGENSDGCYEHFAELDIPQ [CLPTM1]: the protein stability index turned out to be 4.54 ± 0.23 under setting [1] and 4.63 ± 0.26 under setting [2].

Take AGDEAVFAQYDSFHVDSAAEYYRL [TNXB]: the protein stability index is 3.51 ± 0.38 under setting [1] and 3.68 ± 0.13 under setting [2].

The sequence AIGVSISLSSIATCVYIAEIAPQH [SLC2A12] gave a protein stability index under setting [1] of 3.17 ± 0.13 and a protein stability index under setting [2] of 3.34 ± 0.38.

Take IINAKSNDGWTPLHVAAHYGRDSF [ASB7]: the protein stability index by setting is: under setting [1], 2.46 ± 0.24; under setting [2], 2.41 ± 0.42.

On to KGKQPTSAENSVAKKEDKVPVKKQ [NANOGP8], for which the protein stability index by setting is: under setting [1], 5.37 ± 0.32; under setting [2], 5.44 ± 0.14.

Regarding VFRVSSDKLALCHLELTRKLQDLI [FCHO1], the protein stability index reads like this: under setting [1], 2.28 ± 0.46; under setting [2], 2.03 ± 0.61.

For the sequence DDYLHKDTGETSMLKRPVLLHLHQ [STEAP1], the protein stability index reads like this: under setting [1], 3.31 ± 0.21; under setting [2], 3.17 ± 0.16.

Regarding VLALFVYVAWNEGSRQWREGKQD [VMA21], the protein stability index reads like this: under setting [3], 2.51 ± 0.49; under setting [4], 2.85 ± 1.1.

For VLQALFYLLDRAVDSFETQRNGLV [PTPN9], the protein stability index is 2.45 ± 0.98 under setting [1] and 2.66 ± 0.62 under setting [2].

TDEEEGLIWVVGPVLAVVFIICIV [PTPRD] registered a protein stability index under setting [1] of 2.1 ± 0.4 and a protein stability index under setting [2] of 2.07 ± 0.46.

As to SISELKHALSGHAKVKPFDPKITC [TPH1], the protein stability index runs as follows: under setting [1], 2.77 ± 0.45; under setting [2], 2.93 ± 0.37.

On to RRGRHEQSPTSRPRKVSSLPPRSC [C22orf15], for which the protein stability index runs as follows: under setting [1], 4.35 ± 0.066; under setting [2], 4.61 ± 0.22.

As to DKNTLKDHMRKKQHRKINPKNREY [ZNF277], the protein stability index turned out to be 3.3 ± 0.33 under setting [1] and 3.28 ± 0.35 under setting [2].

Take EQHAGTSEGLHLAGTAGHPPSGSQ [FBF1]: the protein stability index is, setting by setting: under setting [1], 5.19 ± 0.3; under setting [2], 5.2 ± 0.15.

For the sequence PFTRRYYKEKFGITDLPRIDVSKR [EFHC1], the protein stability index was 3.01 ± 0.36 under setting [1] and 3.3 ± 0.095 under setting [2].

On to TSLFLGNGVLLCFYSQEWYARQHC [SOAT1], for which the protein stability index reads like this: under setting [1], 2.9 ± 0.8; under setting [2], 2.91 ± 0.32.

For the sequence TVEEAKAEKETELSLQKEQLQLKI [TRIM29], the protein stability index is, setting by setting: under setting [1], 5.1 ± 0.27; under setting [2], 5.33 ± 0.3.

In the case of EQTCDPDSSLHWSSSYSPETFRQQ [ZNF396], the protein stability index under setting [1] is 4.43 ± 0.12 and the protein stability index under setting [2] stood at 4.58 ± 0.12.

As for NDIPHSIPLEQGSSCNGPGQTTGH [FAN1], the protein stability index is, setting by setting: under setting [1], 5.24 ± 0.18; under setting [2], 5.23 ± 0.1.

Regarding LKNTPRFKRRRVRRRRMETIVFLD [PCMTD2], the protein stability index is 2.9 ± 0.19 under setting [1] and 3.33 ± 0.3 under setting [2].

On to TIKSHLKSFSMANGMNAVMMHGRS [RAB40C], for which the protein stability index reads like this: under setting [1], 2.54 ± 0.14; under setting [2], 2.6 ± 0.23.

For the sequence LLAYLIRNGSERVVTSAREHIYDL [CLINT1], the protein stability index runs as follows: under setting [1], 2.85 ± 0.33; under setting [2], 2.41 ± 0.28.

For the sequence ENGSVSSSETPPPPPPPNEINPPP [EIF5], the protein stability index was 5.32 ± 0.18 under setting [1] and 5.35 ± 0.17 under setting [2].

Regarding QRAEMLPKTSGTRATSLGRPEEEE [CPOX], the protein stability index under setting [1] worked out at 5.47 ± 0.37 and the protein stability index under setting [2] is 5.49 ± 0.28.

Take YVEIRTFEPRLLVQSIELQRPRFI [VPS39]: the protein stability index came out at 2.33 ± 0.76 under setting [1] and 2.65 ± 0.7 under setting [2].

Consider VIFALCWFPLHLSRILKKTVYNEM [EDNRA], for which the protein stability index came to 3 ± 0.64 under setting [1] and 2.92 ± 0.68 under setting [2].

Take HARTHPQTALLESSCENKRADLVF [MATN2]: the protein stability index by setting is: under setting [1], 4.09 ± 0.46; under setting [2], 4.02 ± 0.19.

Consider ELLKEAELIRNIQELLKRTIMQAV [TEKT4], for which the protein stability index by setting is: under setting [1], 2.4 ± 0.2; under setting [2], 2.27 ± 0.31.

On to WYLKEEDHYQRVKREREKEDIALN [RHOBTB1], for which the protein stability index runs as follows: under setting [1], 3.94 ± 0.18; under setting [2], 3.955 ± 0.027.

For SMWTRPQIKDFKEKIQQDADSVIT [ACBD3], the protein stability index runs as follows: under setting [1], 3.88 ± 0.2; under setting [2], 4.08 ± 0.42.

Turning to KSEEGHPFKAYLDVDITLSSEAFH [RTN3], the protein stability index is 2.87 ± 0.45 under setting [1] and 2.67 ± 0.41 under setting [2].

In the case of ALVKEREKQLAKKEQSKELQMKLE [FAM50A], the protein stability index was found to be 4.87 ± 0.076 under setting [1] and 4.64 ± 0.37 under setting [2].

Turning to ERAKELYSSGEFSSGRKWGDDAPK [INTS4], the protein stability index by setting is: under setting [1], 4.77 ± 0.33; under setting [2], 4.66 ± 0.14.

In the case of RDFRPTDQEEIKTLERYMCSRFFI [TENT5C], the protein stability index runs as follows: under setting [1], 2.63 ± 0.39; under setting [2], 2.71 ± 0.17.

Turning to LLYDRGTKFGLFTPGSRIESILMS [CPOX], the protein stability index turned out to be 2.45 ± 0.46 under setting [1] and 2.14 ± 0.42 under setting [2].

Regarding RAESTANAGQSDNRSLAEACSEGD [ANKRD17], the protein stability index reads like this: under setting [1], 5.55 ± 0.24; under setting [2], 5.53 ± 0.16.

On to TRAADLLVNPLDPRNADKIRVKIA [SRPK2], for which the protein stability index reads like this: under setting [1], 3.64 ± 0.48; under setting [2], 3.75 ± 0.23.

In the case of HYKKAPIFTSEHGEKLYLVRALQ [NCK2], the protein stability index reads like this: under setting [3], 2.42 ± 0.61; under setting [4], 2.2 ± 0.34.

Regarding LEWNSLGTWDDAFATFCGGLAANG [LRRC45], the protein stability index turned out to be 2.52 ± 0.3 under setting [1] and 2.58 ± 0.31 under setting [2].

With SPQFEGPLSPPPINYNGIFSLKQE [NEUROD6], the protein stability index reads like this: under setting [1], 3.96 ± 0.11; under setting [2], 4.05 ± 0.17.

For FFKGLVEAVESTLQTPLDIRLKES [TRIM14], the protein stability index reads like this: under setting [1], 2.15 ± 0.33; under setting [2], 2.29 ± 0.28.

Take TSSLRLNWEAPPGAFDSFLLRFGV [TNXB]: the protein stability index is, setting by setting: under setting [1], 2.06 ± 0.27; under setting [2], 2.21 ± 0.56.

With VLGPLVALIICYNWLHRRLAGQFL [MOG], the protein stability index is, setting by setting: under setting [1], 3.15 ± 0.19; under setting [2], 2.92 ± 0.13.

In the case of PLVTMDDAMERTVQSFRHLRRVK [NSDHL], the protein stability index runs as follows: under setting [3], 3 ± 0.25; under setting [4], 3.23 ± 0.18.

Take LQELKKLKNSNYESIQQTARSIAE [PPTC7]: the protein stability index turned out to be 3.9 ± 0.51 under setting [1] and 3.76 ± 0.46 under setting [2].

RASALLASCSKNCTNSPAIVRFSG [FBXO34]: the protein stability index by setting is: under setting [1], 2.24 ± 0.24; under setting [2], 2.59 ± 0.19.

For SELPPPMERTGGIGDSRPPSFHPH [DVL3], the protein stability index is, setting by setting: under setting [1], 4.55 ± 0.25; under setting [2], 4.61 ± 0.09.

On to FAQYDSFHVDSAAEYYRLHLEGYH [TNXB], for which the protein stability index is 2.43 ± 0.81 under setting [1] and 2.26 ± 0.23 under setting [2].

Regarding PDPDAWLRALGELLRRDLGVGTSM [FANCE], the protein stability index was determined as 1.86 ± 0.28 under setting [1] and 1.9 ± 0.2 under setting [2].

As to SLVIGALLASLTGGVLIDRYGRRT [SLC2A12], the protein stability index under setting [1] turned out to be 2.89 ± 0.45 and the protein stability index under setting [2] is 3.03 ± 0.42.
